# B1: SDC25 (protein, UniProt P0CF34 1-1048, looked up)
# Putative truncated guanine …: MPITSSPDLFYLNDCDVVYWYDLTRLVCHYVNLTERDLLANEREKFLTSLDLLTAQITYVYMLFRNLRLVEDSFKKTLKKLIYTLSRFSINANIWFHSTLFEEREAIASQKDPERRSPLLQSILGTFQKFHFLLRLLHFLSNPNELTILPQLTPRFFKDSFNTISWNNPFLRKRLNQHMSHDLPRQMIKAVAGASGIVAENIDEIPASKQGTSCSSETSHHSPSAPFQRRRRGTIFSNVSGSSDESDTIWSKRKKPYPLNEETLSLVRARKKQLDGKLKQMIKSANEYLSNTANFSKMLNFEMNFKTYEEVSGTIPIIDILENLDLTIFLNLRELGDENRVFDEDVAIDDEDEEFLKHSLSSLSYILSDYFNMKQYFHDVVVKFIIVAQHLTLEDPFVFSPMQNDLPTGYYEPMKPSSLNLDNAKDKKNGSQNTDIQEEEDEYEPDPDSLILFHNLINQDSDFNDLKFFNLAHVFKKSCDDYFDVLKLAIEFVNQLILERENLLNYAARMMKNNITELLLRGEEGYGSYDGGETAEKSDTNAVYADSDTKDNDEWRDSQVKLPRYLQREYDSELIWGSNNRIKGGSKHALISYLTDNEKKDLFFDITFLITFRSIFTTTEFLSYLISQYNLDPPEDLCFEEYNEWVTKKLIPVKCRVVEIMTTFFKQYWFLGYDEPDLATLNLDYFAQVAIKENITGSVELLKEVNQKFKHGNIQEATAPMKTLDQQICQDHYSGTLYSTTESILAVDPVLFATQLTILEHEIYCEITIFDCLQKIWKNKYTKSYGASPGLNEFISFANKLTNFISYSVVKEADKSKRAKLLSHFIFIAEYCRKFNNFSSMTAIISALYSSPIYRLEKTWQAVIPQTRDLLQSLNKLMDPKKNFINYRNELKSLHSAPCVPFFGVYLSDLTFTDSGNPDYLVLEHGLKGVHDEKKYINFNKRSRLVDILQEIIYFKKTHYDFTKDRTVIECISNSLENIPHIEKQYQLSLIIEPKPRKKVVPNSNSNNKSQEKSRDDQTDEGKTSTKKDRFPKFQLHKTKKKAPKVSK
# B2: SHO1 (protein, UniProt P40073 1-367, looked up)
# High osmolarity signaling …: MSISSKIRPTPRKPSRMATDHSFKMKKFYADPFAISSISLAIVSWVIAIGGSISSASTNESFPRFTWWGIVYQFLIICSLMLFYCFDLVDHYRIFITTSIAVAFVYNTNSATNLVYADGPKKAAASAGVILLSIINLIWILYYGGDNASPTNRWIDSFSIKGIRPSPLENSLHRARRRGNRNTTPYQNNVYNDAIRDSGYATQFDGYPQQQPSHTNYVSSTALAGFENTQPNTSEAVNLHLNTLQQRINSASNAKETNDNSNNQTNTNIGNTFDTDFSNGNTETTMGDTLGLYSDIGDDNFIYKAKALYPYDADDDDAYEISFEQNEILQVSDIEGRWWKARRANGETGIIPSNYVQLIDGPEEMHR
# Tested on: Abp1 PPIs
# Assay: DHFR-PCA of Abp1 SH3-swapped baits (Fig. 2B-D, S2C, S2F);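 as to Protein-protein interaction distance between Abp1 SH3-swapped baits, to ABP1: Euclidean distance between DHFR-PCA score profiles of the baits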;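 as to Protein-protein interaction distance between Abp1 SH3-swapped baits, to BEM1-2: Euclidean distance between DHFR-PCA score profiles of the baits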;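 as to Protein-protein interaction distance between Abp1 SH3-swapped baits, to BOI1: Euclidean distance between DHFR-PCA score profiles of the baits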;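 as to Protein-protein interaction distance between Abp1 SH3-swapped baits, to BZZ1-1: Euclidean distance between DHFR-PCA score profiles of the baits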
# Assay type: cell-based, Saccharomyces cerevisiae
# Conditions: for Protein-protein interaction distance between Abp1 SH3-swapped baits, to ABP1: Abp1 bait with swapped SH3, distance to bait with ABP1 SH3; for Protein-protein interaction distance between Abp1 SH3-swapped baits, to ABP1 / Protein-protein interaction distance between Abp1 SH3-swapped baits, to BBC1 / Protein-protein interaction distance between Abp1 SH3-swapped baits, to BEM1-1 / Protein-protein interaction distance between Abp1 SH3-swapped baits, to BEM1-2 / Protein-protein interaction distance between Abp1 SH3-swapped baits, to BOI1 / Protein-protein interaction distance between Abp1 SH3-swapped baits, to BOI2 / Protein-protein interaction distance between Abp1 SH3-swapped baits, to BUD14 / Protein-protein interaction distance between Abp1 SH3-swapped baits, to BZZ1-1 / Protein-protein interaction distance between Abp1 SH3-swapped baits, to BZZ1-2 / Protein-protein interaction distance between Abp1 SH3-swapped baits, to CDC25 / Protein-protein interaction distance between Abp1 SH3-swapped baits, to CTTN / Protein-protein interaction distance between Abp1 SH3-swapped baits, to CYK3 / Protein-protein interaction distance between Abp1 SH3-swapped baits, to DBNL / Protein-protein interaction distance between Abp1 SH3-swapped baits, to FUS1 / Protein-protein interaction distance between Abp1 SH3-swapped baits, to HCLS1 / Protein-protein interaction distance between Abp1 SH3-swapped baits, to HOF1 / Protein-protein interaction distance between Abp1 SH3-swapped baits, to HSE1 / Protein-protein interaction distance between Abp1 SH3-swapped baits, to LSB1 / Protein-protein interaction distance between Abp1 SH3-swapped baits, to LSB3 / Protein-protein interaction distance between Abp1 SH3-swapped baits, to MYO3 / Protein-protein interaction distance between Abp1 SH3-swapped baits, to MYO5 / Protein-protein interaction distance between Abp1 SH3-swapped baits, to NBP2 / Protein-protein interaction distance between Abp1 SH3-swapped baits, to PEX13 / Protein-protein interaction distance between Abp1 SH3-swapped baits, to PIN3 / Protein-protein interaction distance between Abp1 SH3-swapped baits, to RVS167 / Protein-protein interaction distance between Abp1 SH3-swapped baits, to SDC25 / Protein-protein interaction distance between Abp1 SH3-swapped baits, to SHO1 / Protein-protein interaction distance between Abp1 SH3-swapped baits, to SLA1-1 / Protein-protein interaction distance between Abp1 SH3-swapped baits, to SLA1-2 / Protein-protein interaction distance between Abp1 SH3-swapped baits, to SLA1-3 / Protein-protein interaction distance between Abp1 SH3-swapped baits, to YSC84: sheet Fig2C; for Protein-protein interaction distance between Abp1 SH3-swapped baits, to BBC1: distance to Abp1 bait with BBC1 SH3; for Protein-protein interaction distance between Abp1 SH3-swapped baits, to BEM1-1: distance to Abp1 bait with BEM1-1 SH3; for Protein-protein interaction distance between Abp1 SH3-swapped baits, to BEM1-2: distance to Abp1 bait with BEM1-2 SH3; for Protein-protein interaction distance between Abp1 SH3-swapped baits, to BOI1: distance to Abp1 bait with BOI1 SH3; for Protein-protein interaction distance between Abp1 SH3-swapped baits, to BOI2: distance to Abp1 bait with BOI2 SH3; for Protein-protein interaction distance between Abp1 SH3-swapped baits, to BUD14: distance to Abp1 bait with BUD14 SH3; for Protein-protein interaction distance between Abp1 SH3-swapped baits, to BZZ1-1: distance to Abp1 bait with BZZ1-1 SH3; for Protein-protein interaction distance between Abp1 SH3-swapped baits, to BZZ1-2: distance to Abp1 bait with BZZ1-2 SH3; for Protein-protein interaction distance between Abp1 SH3-swapped baits, to CDC25: distance to Abp1 bait with CDC25 SH3; for Protein-protein interaction distance between Abp1 SH3-swapped baits, to CTTN: distance to Abp1 bait with CTTN SH3; for Protein-protein interaction distance between Abp1 SH3-swapped baits, to CYK3: distance to Abp1 bait with CYK3 SH3; for Protein-protein interaction distance between Abp1 SH3-swapped baits, to DBNL: distance to Abp1 bait with DBNL SH3; for Protein-protein interaction distance between Abp1 SH3-swapped baits, to FUS1: distance to Abp1 bait with FUS1 SH3; for Protein-protein interaction distance between Abp1 SH3-swapped baits, to HCLS1: distance to Abp1 bait with HCLS1 SH3; for Protein-protein interaction distance between Abp1 SH3-swapped baits, to HOF1: distance to Abp1 bait with HOF1 SH3; for Protein-protein interaction distance between Abp1 SH3-swapped baits, to HSE1: distance to Abp1 bait with HSE1 SH3; for Protein-protein interaction distance between Abp1 SH3-swapped baits, to LSB1: distance to Abp1 bait with LSB1 SH3; for Protein-protein interaction distance between Abp1 SH3-swapped baits, to LSB3: distance to Abp1 bait with LSB3 SH3; for Protein-protein interaction distance between Abp1 SH3-swapped baits, to MYO3: distance to Abp1 bait with MYO3 SH3; for Protein-protein interaction distance between Abp1 SH3-swapped baits, to MYO5: distance to Abp1 bait with MYO5 SH3; for Protein-protein interaction distance between Abp1 SH3-swapped baits, to NBP2: distance to Abp1 bait with NBP2 SH3; for Protein-protein interaction distance between Abp1 SH3-swapped baits, to PEX13: distance to Abp1 bait with PEX13 SH3; for Protein-protein interaction distance between Abp1 SH3-swapped baits, to PIN3: distance to Abp1 bait with PIN3 SH3; for Protein-protein interaction distance between Abp1 SH3-swapped baits, to RVS167: distance to Abp1 bait with RVS167 SH3; for Protein-protein interaction distance between Abp1 SH3-swapped baits, to SDC25: distance to Abp1 bait with SDC25 SH3; for Protein-protein interaction distance between Abp1 SH3-swapped baits, to SHO1: distance to Abp1 bait with SHO1 SH3; for Protein-protein interaction distance between Abp1 SH3-swapped baits, to SLA1-1: distance to Abp1 bait with SLA1-1 SH3; for Protein-protein interaction distance between Abp1 SH3-swapped baits, to SLA1-2: distance to Abp1 bait with SLA1-2 SH3; for Protein-protein interaction distance between Abp1 SH3-swapped baits, to SLA1-3: distance to Abp1 bait with SLA1-3 SH3; for Protein-protein interaction distance between Abp1 SH3-swapped baits, to YSC84: distance to Abp1 bait with YSC84 SH3
# Outline: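 Interactions were scored by DHFR protein-fragment complementation. DHFR F[1,2]-tagged Abp1 strains, whose SH3 was swapped for yeast or human ortholog domains, were crossed on YPD at 30 °C for 48 h with a 1536-format array of 575 prey-DHFR F[3] strains and 40 negatives, giving four replicates per pair. PCA selection lasted 4 days after double diploid selection.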
# [1] = number of PPIs, difference, Abp1 SH3-swapped with the listed SH3, Fig2D,S2F
Molecule,"Protein-protein interaction distance between Abp1 SH3-swapped baits, to ABP1","Protein-protein interaction distance between Abp1 SH3-swapped baits, to BBC1","Protein-protein interaction distance between Abp1 SH3-swapped baits, to BEM1-1","Protein-protein interaction distance between Abp1 SH3-swapped baits, to BEM1-2","Protein-protein interaction distance between Abp1 SH3-swapped baits, to BOI1","Protein-protein interaction distance between Abp1 SH3-swapped baits, to BOI2","Protein-protein interaction distance between Abp1 SH3-swapped baits, to BUD14","Protein-protein interaction distance between Abp1 SH3-swapped baits, to BZZ1-1","Protein-protein interaction distance between Abp1 SH3-swapped baits, to BZZ1-2","Protein-protein interaction distance between Abp1 SH3-swapped baits, to CDC25","Protein-protein interaction distance between Abp1 SH3-swapped baits, to CTTN","Protein-protein interaction distance between Abp1 SH3-swapped baits, to CYK3","Protein-protein interaction distance between Abp1 SH3-swapped baits, to DBNL","Protein-protein interaction distance between Abp1 SH3-swapped baits, to FUS1","Protein-protein interaction distance between Abp1 SH3-swapped baits, to HCLS1","Protein-protein interaction distance between Abp1 SH3-swapped baits, to HOF1","Protein-protein interaction distance between Abp1 SH3-swapped baits, to HSE1","Protein-protein interaction distance between Abp1 SH3-swapped baits, to LSB1","Protein-protein interaction distance between Abp1 SH3-swapped baits, to LSB3","Protein-protein interaction distance between Abp1 SH3-swapped baits, to MYO3",other results
B1,33.14,31.85,25.75,6.672,29.16,28.39,24.65,32.5,29.97,14.8,27.81,15.21,31.69,24.28,34.87,7.905,31.59,37.12,36.63,35.91,"Protein-protein interaction distance between Abp1 SH3-swapped baits, to MYO5: 35.29; Protein-protein interaction distance between Abp1 SH3-swapped baits, to NBP2: 24.44; Protein-protein interaction distance between Abp1 SH3-swapped baits, to PEX13: 35.86; Protein-protein interaction distance between Abp1 SH3-swapped baits, to PIN3: 34.35; Protein-protein interaction distance between Abp1 SH3-swapped baits, to RVS167: 34.37; Protein-protein interaction distance between Abp1 SH3-swapped baits, to SDC25: 0.00; Protein-protein interaction distance between Abp1 SH3-swapped baits, to SHO1: 31.28; Protein-protein interaction distance between Abp1 SH3-swapped baits, to SLA1-1: 14.07; Protein-protein interaction distance between Abp1 SH3-swapped baits, to SLA1-2: 23.99; Protein-protein interaction distance between Abp1 SH3-swapped baits, to SLA1-3: 37.49; Protein-protein interaction distance between Abp1 SH3-swapped baits, to YSC84: 36.86"
B2,8.989,7.412,10.91,30.43,8.152,11.77,14.66,4.878,7.862,24.02,9.013,24.75,4.441,16.07,8.302,29.05,5.64,11.57,11.76,10.66,"Protein-protein interaction distance between Abp1 SH3-swapped baits, to MYO5: 10.26; Protein-protein interaction distance between Abp1 SH3-swapped baits, to NBP2: 13.02; Protein-protein interaction distance between Abp1 SH3-swapped baits, to PEX13: 8.672; Protein-protein interaction distance between Abp1 SH3-swapped baits, to PIN3: 9.004; Protein-protein interaction distance between Abp1 SH3-swapped baits, to RVS167: 6.815; Protein-protein interaction distance between Abp1 SH3-swapped baits, to SDC25: 31.28; Protein-protein interaction distance between Abp1 SH3-swapped baits, to SHO1: 0.00; Protein-protein interaction distance between Abp1 SH3-swapped baits, to SLA1-1: 26.8; Protein-protein interaction distance between Abp1 SH3-swapped baits, to SLA1-2: 16.55; Protein-protein interaction distance between Abp1 SH3-swapped baits, to SLA1-3: 11.51; Protein-protein interaction distance between Abp1 SH3-swapped baits, to YSC84: 12.33; PPIs gained by Abp1 - SH3-dependent PPIs gained by Abp1 [1]: 3; SH3-dependent PPIs - SH3-dependent PPIs gained by Abp1 [1]: 1; SH3-dependent PPIs gained by Abp1 (number of PPIs, Abp1 SH3-swapped with the listed SH3, DHFR-PCA, Fig2D,S2F): 1"

# Source: paper PMC7954794, “Protein context shapes the specificity of SH3 domain-mediated interactions in vivo” (Nature Communications, 2021)
